# In patent US20160193299A1, “MODIFIED NUCLEOSIDE, NUCLEOTIDE, AND NUCLEIC ACID COMPOSITIONS” (Moderna Therapeutics, Inc., priority 2011, published 2016):
# Columns and labels:
# hemoglobin (HGB) = assay: Example 22 non-human primate study, hemoglobin (HGB); assay type: in vivo, cynomolgus monkey
# Protocol: (§1) LNP formulations, shown in Table 31 (above), were administered to non-human primates (NHP) (cynomolgus monkey) (n=2) as intravenous injection (IV). The NHP were administered a single modified mRNA IV dose of 0.5 mg/kg, 0.05 mg/kg or 0.005 mg/kg of G-CSF or EPO in a dose volume of 0.5 mL/kg. The NHPs were bled before dosing with the modified mRNA LNP formulations to determine protein expression in the serum and a baseline complete blood count. After administration with the G-CSF modified mRNA formulation the NHP were bled at 8, 24, 48 and 72 hours to determined protein expression. After administration with the EPO modified mRNA formulation the NHP were bled at 8, 24, 48, 72 hours and 7 days to determined protein expression.
# G-CSF [1] = assay: Example 17 LNP in vivo study IV/IM/SC, serum G-CSF ELISA; details: rats, 0.05 mg/kg
# Protocol: (§2) Formulations, listed in Table 31, were characterized by particle size, zeta potential, and encapsulation.
# LNP formulations, shown in Table 31 (above), were administered to rats (n=5) intravenously (IV), intramuscularly (IM) or subcutaneously (SC) at a single modified mRNA dose of 0.05 mg/kg. A control group of rats (n=4) was untreated. […] The rats administered EPO modified mRNA intravenously were also bled at 7 days.
# G-CSF [2] = assay: Example 18 time course in vivo study, serum G-CSF ELISA; details: mice IV
# Protocol: as §2
# LNP formulations, shown in Table 31 (above), were administered to mice (n=5) intravenously (IV) at a single modified mRNA dose of 0.5, 0.05 or 0.005 mg/kg. The mice were bled at 8 hours, 24 hours, 72 hours and 6 days after they were administered with G-CSF or EPO modified mRNA formulations to determine protein expression using ELISA.
# neutrophils = assay: Example 22 non-human primate study, neutrophil count; assay type: in vivo, cynomolgus monkey
# Protocol: as §1
# Samples collected from the NHPs after they were administered with G-CSF or EPO modified mRNA formulations were analyzed by ELISA to determine protein expression. Neutrophil and reticulocyte count was also determined pre-dose, 24 hours, 3 days, 7 days, 14 days and 18 days after administration of the modified G-CSF or EPO formulation.
# neutrophil count = assay: Example 40 multi-site IM and SC administration of G-CSF mRNA, neutrophil count; assay type: in vivo; details: mice, intramuscular, day 3
# Protocol: Injection of four doses or 2×50 ug (two sites) daily for three days (24 hrs interval) was performed. The fourth dose was administered 6 hrs before blood collection and CBC analysis. […] The mice were bled at 72 hours after the first mRNA injection (6 hours after the last mRNA dose) to determine the effect of mRNA-encoded human G-CSF on the neutrophil count. The dosing regimen is shown in Table 63 as are the resulting neutrophil counts (thousands/uL). In Table 63, an asterisks (*) indicate statistical significance at p<0.05.
# [3] = Female NHP, 0.005 mg/kg, 14/18 days
# [4] = Female NHP, 0.005 mg/kg, 24 hours
# [5] = Female NHP, 0.005 mg/kg, 3 days
# [6] = Female NHP, 0.005 mg/kg, 7 days
# [7] = Female NHP, 0.005 mg/kg, Pre-dose
# [8] = Female NHP, 0.05 mg/kg, 14/18 days
# [9] = Female NHP, 0.05 mg/kg, 24 hours
# [10] = Female NHP, 0.05 mg/kg, Pre-dose
# [11] = Female NHP, 0.5 mg/kg, 14/18 days
# [12] = Female NHP, 0.5 mg/kg, 24 hours
# [13] = Female NHP, 0.5 mg/kg, Pre-dose
# [14] = Male NHP, 0.005 mg/kg, 14/18 days
# [15] = Male NHP, 0.005 mg/kg, 24 hours
# [16] = Male NHP, 0.005 mg/kg, Pre-dose
# [17] = Male NHP, 0.05 mg/kg, 14/18 days
# [18] = Male NHP, 0.5 mg/kg, 14/18 days
molecule,measurement,setting,value
"G-CSF: human G-CSF mRNA SEQ ID NO: 6, polyA ~160 nt, Cap1, fully modified with 5-methylcytosine and pseudouridine (nucleic acid, listed as Homo sapiens, polyA ~160, Cap1, 5mC/pseudouridine modified) GGGAAAUAAGAGAGAAAAGAAGAGUAAGAAGAAAUAUAAGAGCCACCAUGGCCGGUCCCGCGACCCAAAGCCCCAUGAAACUUAUGGCCCUGCAGUUGCUGCUUUGGCACUCGGCCCUCUGGACAGUCCAAGAAGCGACUCCUCUCGGACCUGCCUCAUCGUUGCCGCAGUCAUUCCUUUUGAAGUGUCUGGAGCAGGUGCGAAAGAUUCAGGGCGAUGGAGCCGCACUCCAAGAGAAGCUCUGCGCGACAUACAAACUUUGCCAUCCCGAGGAGCUCGUACUGCUCGGGCACAGCUUGGGGAUUCCCUGGGCUCCUCUCUCGUCCUGUCCGUCGCAGGCUUUGCAGUUGGCAGGGUGCCUUUCCCAGCUCCACUCCGGUUUGUUCUUGUAUCAGGGACUGCUGCAAGCCCUUGAGGGAAUCUCGCCAGAAUUGGGCCCGACGCUGGACACGUUGCAGCUCGACGUGGCGGAUUUCGCAACAACCAUCUGGCAGCAGAUGGAGGAACUGGGGAUGGCACCCGCGCUGCAGCCCACGCAGGGGGCAAUGCCGGCCUUUGCGUCCGCGUUUCAGCGCAGGGCGGGUGGAGUCCUCGUAGCGAGCCACCUUCAAUCAUUUUUGGAAGUCUCGUACCGGGUGCUGAGACAUCUUGCGCAGCCGUGAAGCGCUGCCUUCUGCGGGGCUUGCCUUCUGGCCAUGCCCUUCUUCUCUCCCUUGCACCUGUACCUCUUGGUCUUUGAAUAAAGCCUGAGUAGGAAG",HGB,hemoglobin (HGB); [3],129 g/L
same,HGB,hemoglobin (HGB); [4],127 g/L
same,HGB,hemoglobin (HGB); [5],127 g/L
same,HGB,hemoglobin (HGB); [6],129 g/L
same,HGB,hemoglobin (HGB); [7],129 g/L
same,HGB,hemoglobin (HGB); [8],123 g/L
same,HGB,hemoglobin (HGB); [9],117 g/L
same,HGB,"hemoglobin (HGB); Female NHP, 0.05 mg/kg, 3 days",115 g/L
same,HGB,"hemoglobin (HGB); Female NHP, 0.05 mg/kg, 7 days",116 g/L
same,HGB,hemoglobin (HGB); [10],129 g/L
same,HGB,hemoglobin (HGB); [11],113 g/L
same,HGB,hemoglobin (HGB); [12],112 g/L
same,HGB,"hemoglobin (HGB); Female NHP, 0.5 mg/kg, 3 days",114 g/L
same,HGB,"hemoglobin (HGB); Female NHP, 0.5 mg/kg, 7 days",116 g/L
same,HGB,hemoglobin (HGB); [13],129 g/L
same,HGB,hemoglobin (HGB); [14],118 g/L
same,HGB,hemoglobin (HGB); [15],117 g/L
same,HGB,"hemoglobin (HGB); Male NHP, 0.005 mg/kg, 3 days",116 g/L
same,HGB,"hemoglobin (HGB); Male NHP, 0.005 mg/kg, 7 days",116 g/L
same,HGB,hemoglobin (HGB); [16],128 g/L
same,HGB,hemoglobin (HGB); [17],134 g/L
same,HGB,"hemoglobin (HGB); Male NHP, 0.05 mg/kg, 24 hours",122 g/L
same,HGB,"hemoglobin (HGB); Male NHP, 0.05 mg/kg, 3 days",126 g/L
same,HGB,"hemoglobin (HGB); Male NHP, 0.05 mg/kg, 7 days",126 g/L
same,HGB,"hemoglobin (HGB); Male NHP, 0.05 mg/kg, Pre-dose",137 g/L
same,HGB,hemoglobin (HGB); [18],98 g/L
same,HGB,"hemoglobin (HGB); Male NHP, 0.5 mg/kg, 24 hours",113 g/L
same,HGB,"hemoglobin (HGB); Male NHP, 0.5 mg/kg, 3 days",118 g/L
same,HGB,"hemoglobin (HGB); Male NHP, 0.5 mg/kg, 7 days",115 g/L
same,HGB,"hemoglobin (HGB); Male NHP, 0.5 mg/kg, Pre-dose",133 g/L
same,G-CSF Serum Concentration,"G-CSF [1]; IM, 2 hours",1620.4 pg/mL
same,G-CSF Serum Concentration,"G-CSF [1]; IM, 8 hours",7910.4 pg/mL
same,G-CSF Serum Concentration,"G-CSF [1]; IM, 24 hours",893.3 pg/mL
same,G-CSF Serum Concentration,"G-CSF [1]; IM, 48 hours",OSC
same,G-CSF Serum Concentration,"G-CSF [1]; IM, 5 days",OSC
same,G-CSF detectable to,G-CSF [1]; IV,7 days
same,G-CSF Serum Concentration,"G-CSF [1]; IV, 2 hours","31,331.9 pg/ml"
same,G-CSF Serum Concentration,"G-CSF [1]; IV, 8 hours","70,532.4 pg/ml"
same,G-CSF Serum Concentration,"G-CSF [1]; IV, 24 hours","5,738.6 pg/ml"
same,G-CSF Serum Concentration,"G-CSF [1]; IV, 48 hours",233.8 pg/mL
same,G-CSF Serum Concentration,"G-CSF [1]; IV, 5 days",60.4 pg/mL
same,G-CSF Serum Concentration,"G-CSF [1]; SC, 2 hours",80.3 pg/mL
same,G-CSF Serum Concentration,"G-CSF [1]; SC, 8 hours",164.2 pg/mL
same,G-CSF Serum Concentration,"G-CSF [1]; SC, 24 hours",OSC
same,G-CSF Serum Concentration,"G-CSF [1]; SC, 48 hours",OSC
same,G-CSF Serum Concentration,"G-CSF [1]; SC, 5 days",OSC
same,G-CSF detectable to at least,G-CSF [1]; subcutaneous and intramuscular,at least 8 hours
same,G-CSF protein expression detectable out to,G-CSF [2]; 0.005 mg/kg and 0.05 mg/kg,72 h
same,G-CSF Serum Concentration,"G-CSF [2]; 0.005 mg/kg, 8 hours","11,550.6 pg/ml"
same,G-CSF Serum Concentration,"G-CSF [2]; 0.005 mg/kg, 24 hours","5,068.9 pg/ml"
same,G-CSF Serum Concentration,"G-CSF [2]; 0.05 mg/kg, 8 hours","462,312.5 pg/ml"
same,G-CSF Serum Concentration,"G-CSF [2]; 0.05 mg/kg, 24 hours","80,903.8 pg/ml"
same,G-CSF Serum Concentration,"G-CSF [2]; 0.5 mg/kg, 8 hours",">1,250,000 pg/ml"
same,G-CSF Serum Concentration,"G-CSF [2]; 0.5 mg/kg, 24 hours","495,812.5 pg/ml"
same,G-CSF Serum Concentration,"G-CSF [2]; 0.5 mg/kg, 72 hours","1,325.6 pg/ml"
same,Neutrophils,neutrophils; [3],2.28 10^9/L
same,Neutrophils,neutrophils; [4],8.6 10^9/L
same,Neutrophils,neutrophils; [5],1.78 10^9/L
same,Neutrophils,neutrophils; [6],2.27 10^9/L
same,Neutrophils,neutrophils; [7],2.54 10^9/L
same,Neutrophils,neutrophils; [8],1.82 10^9/L
same,Neutrophils,neutrophils; [9],29.91 10^9/L
same,Neutrophils,"neutrophils; Female NHP, 0.05 mg/kg, 3 days",10.77 10^9/L
same,Neutrophils,"neutrophils; Female NHP, 0.05 mg/kg, 7 days",3.8 10^9/L
same,Neutrophils,neutrophils; [10],3.05 10^9/L
same,Neutrophils,neutrophils; [11],1.98 10^9/L
same,Neutrophils,neutrophils; [12],13.96 10^9/L
same,Neutrophils,"neutrophils; Female NHP, 0.5 mg/kg, 3 days",13.7 10^9/L
same,Neutrophils,"neutrophils; Female NHP, 0.5 mg/kg, 7 days",3.81 10^9/L
same,Neutrophils,neutrophils; [13],1.27 10^9/L
same,Neutrophils,neutrophils; [14],4.31 10^9/L
same,Neutrophils,neutrophils; [15],16.44 10^9/L
same,Neutrophils,"neutrophils; Male NHP, 0.005 mg/kg, 3 days",3.74 10^9/L
same,Neutrophils,"neutrophils; Male NHP, 0.005 mg/kg, 7 days",7.28 10^9/L
same,Neutrophils,neutrophils; [16],1.52 10^9/L
same,Neutrophils,neutrophils; [17],3.59 10^9/L
same,Neutrophils,"neutrophils; Male NHP, 0.05 mg/kg, 24 hours",19.92 10^9/L
same,Neutrophils,"neutrophils; Male NHP, 0.05 mg/kg, 3 days",7.49 10^9/L
same,Neutrophils,"neutrophils; Male NHP, 0.05 mg/kg, 7 days",4.13 10^9/L
same,Neutrophils,"neutrophils; Male NHP, 0.05 mg/kg, Pre-dose",13.74 10^9/L
same,Neutrophils,neutrophils; [18],2.58 10^9/L
same,Neutrophils,"neutrophils; Male NHP, 0.5 mg/kg, 24 hours",14.92 10^9/L
same,Neutrophils,"neutrophils; Male NHP, 0.5 mg/kg, 3 days",9.76 10^9/L
same,Neutrophils,"neutrophils; Male NHP, 0.5 mg/kg, 7 days",2.74 10^9/L
same,Neutrophils,"neutrophils; Male NHP, 0.5 mg/kg, Pre-dose",1.53 10^9/L
same,neutrophils relative to pre-dose levels,"neutrophils; NHP, all G-CSF groups",increase in neutrophils
same,increase in neutrophil count above control,neutrophil count,four fold increase
